This assay concerns the target human PCNA, purified (human), P12004. Description: SPR; Bio-Rad XPR 36; human PCNA (~350 RU) immobilised on GLC chip by amine coupling; subunits injected at 125 to 2000 nM; 25 mM HEPES pH 7.5, 10% glycerol, 200 mM sodium acetate pH 7.8, 8 mM magnesium acetate, 1 mM DTT, 0.005% Tween-20, 0.2 mg/ml BSA; 20°C; 1:1 (Langmuir) model. Particulars: remark: other sources report otherwise.

human PCNA, purified (human), P12004, sequence (P12004 whole entry): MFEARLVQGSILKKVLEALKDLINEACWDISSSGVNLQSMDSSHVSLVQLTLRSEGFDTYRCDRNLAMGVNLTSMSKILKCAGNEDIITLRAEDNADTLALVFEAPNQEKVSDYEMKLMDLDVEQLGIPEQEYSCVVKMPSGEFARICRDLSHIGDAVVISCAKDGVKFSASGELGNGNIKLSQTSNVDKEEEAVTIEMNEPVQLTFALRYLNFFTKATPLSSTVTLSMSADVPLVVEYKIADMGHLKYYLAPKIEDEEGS

B1: p125, purified, P28340 1-1107 (natural protein)
chain: MDGKRRPGPGPGVPPKRARGGLWDDDDAPRPSQFEEDLALMEEMEAEHRLQEQEEEELQSVLEGVADGQVPPSAIDPRWLRPTPPALDPQTEPLIFQQLEIDHYVGPAQPVPGGPPPSRGSVPVLRAFGVTDEGFSVCCHIHGFAPYFYTPAPPGFGPEHMGDLQRELNLAISRDSRGGRELTGPAVLAVELCSRESMFGYHGHGPSPFLRITVALPRLVAPARRLLEQGIRVAGLGTPSFAPYEANVDFEIRFMVDTDIVGCNWLELPAGKYALRLKEKATQCQLEADVLWSDVVSHPPEGPWQRIAPLRVLSFDIECAGRKGIFPEPERDPVIQICSLGLRWGEPEPFLRLALTLRPCAPILGAKVQSYEKEEDLLQAWSTFIRIMDPDVITGYNIQNFDLPYLISRAQTLKVQTFPFLGRVAGLCSNIRDSSFQSKQTGRRDTKVVSMVGRVQMDMLQVLLREYKLRSYTLNAVSFHFLGEQKEDVQHSIITDLQNGNDQTRRRLAVYCLKDAYLPLRLLERLMVLVNAVEMARVTGVPLSYLLSRGQQVKVVSQLLRQAMHEGLLMPVVKSEGGEDYTGATVIEPLKGYYDVPIATLDFSSLYPSIMMAHNLCYTTLLRPGTAQKLGLTEDQFIRTPTGDEFVKTSVRKGLLPQILENLLSARKRAKAELAKETDPLRRQVLDGRQLALKVSANSVYGFTGAQVGKLPCLEISQSVTGFGRQMIEKTKQLVESKYTVENGYSTSAKVVYGDTDSVMCRFGVSSVAEAMALGREAADWVSGHFPSPIRLEFEKVYFPYLLISKKRYAGLLFSSRPDAHDRMDCKGLEAVRRDNCPLVANLVTASLRRLLIDRDPEGAVAHAQDVISDLLCNRIDISQLVITKELTRAASDYAGKQAHVELAERMRKRDPGSAPSLGDRVPYVIISAAKGVAAYMKSEDPLFVLEHSLPIDTQYYLEQQLAKPLLRIFEPILGEGRAEAVLLRGDHTRCKTVLTGKVGGLLAFAKRRNCCIGCRTVLSHQGAVCEFCQPRESELYQKEVSHLNALEERFSRLWTQCQRCQGSLHEDVICTSRDCPIFYMRKKVRKDLEDQEQLLRRFGPPGPEAW
The Kd is a measure of binding affinity in units of concentration. A low value points to higher affinity. Usually koff stands for a measure of how fast the partners let go of each other. Broadly, the kon is a measure of how fast the partners come together. The low end stands for slow association, the high end for fast association. Turning to B1, the Kd is 114 nM, the dissociation rate constant (koff) stood at 0.0002 s⁻¹, the kon stood at 1750 M⁻¹ s⁻¹ and the response units is 90 RU.

The record behind these values is PMC7189476.
